Data reported in publication PMC8482512, “Aim32 is a dual-localized 2Fe-2S mitochondrial protein that functions in redox quality control” (The Journal of Biological Chemistry, 2021).

T1: Aim32 with a C-terminal FLAG tag (Aim32-FLAG) (S. cerevisiae, UniProt Q04689 1-311)
T1 construct: Aim32, S. cerevisiae, PCR-amplified from genomic DNA of strain GA74-1A; also called pAIM32-FLAG; pAIM32; source: S. cerevisiae Δaim32 strain transformed with [pAIM32-FLAG]; (GPD promoter), mitochondrial lysate; not shown: 3XFLAG, C-terminal, kept
T1 sequence (looked up): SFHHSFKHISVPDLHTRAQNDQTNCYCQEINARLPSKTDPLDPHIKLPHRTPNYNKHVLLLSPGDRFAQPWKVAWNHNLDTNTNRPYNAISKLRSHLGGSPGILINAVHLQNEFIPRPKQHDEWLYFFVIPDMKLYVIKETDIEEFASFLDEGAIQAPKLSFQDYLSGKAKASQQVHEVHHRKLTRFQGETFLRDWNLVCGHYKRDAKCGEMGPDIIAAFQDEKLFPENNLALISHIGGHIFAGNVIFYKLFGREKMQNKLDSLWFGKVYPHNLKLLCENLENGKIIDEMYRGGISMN


Assays:
[1] = target: Erv1 with a C-terminal histidine tag (Erv1-His) (S. cerevisiae) (UniProt P27882); assay: pull-down; mitochondria of His-tagged strains solubilized in 1% digitonin, 500 μg lysate incubated with Ni2+-agarose beads, washed, eluted, immunoblot; untagged WT strain as control
[2] = target: Osm1 with a C-terminal histidine tag (Osm1-His) (S. cerevisiae) (UniProt P21375); assay: as above
[3] = target: T1, Aim32 with a C-terminal FLAG tag …; assay: co-IP; mitochondrial lysate of Δaim32 [pAIM32-FLAG], ANTI-FLAG M2 affinity gel (FLAG-resin), immunoblot with the indicated antibodies; settings: partners not purified

Chain of Osm1 with a C-terminal histidine tag (Osm1-His) (S. cerevisiae) (P21375 33-501): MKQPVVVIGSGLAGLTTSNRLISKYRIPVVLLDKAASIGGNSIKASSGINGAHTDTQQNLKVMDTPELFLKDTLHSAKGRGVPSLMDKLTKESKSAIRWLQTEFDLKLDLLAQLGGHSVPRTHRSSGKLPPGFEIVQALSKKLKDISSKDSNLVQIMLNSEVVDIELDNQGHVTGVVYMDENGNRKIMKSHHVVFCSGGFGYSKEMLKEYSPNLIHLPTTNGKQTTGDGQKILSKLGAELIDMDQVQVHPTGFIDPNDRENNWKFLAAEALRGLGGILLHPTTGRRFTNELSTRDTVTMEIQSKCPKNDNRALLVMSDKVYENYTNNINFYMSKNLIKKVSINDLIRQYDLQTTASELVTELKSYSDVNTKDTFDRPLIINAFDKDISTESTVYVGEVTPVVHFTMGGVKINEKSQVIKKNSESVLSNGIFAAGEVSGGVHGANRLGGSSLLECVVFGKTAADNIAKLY
Chain of Erv1 with a C-terminal histidine tag (Erv1-His) (S. cerevisiae) (P27882 whole entry): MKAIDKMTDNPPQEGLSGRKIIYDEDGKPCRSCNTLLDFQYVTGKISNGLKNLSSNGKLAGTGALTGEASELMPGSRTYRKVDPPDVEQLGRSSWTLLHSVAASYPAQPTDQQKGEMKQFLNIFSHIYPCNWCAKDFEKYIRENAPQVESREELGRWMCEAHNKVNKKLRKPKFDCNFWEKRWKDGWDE

Molecule	fraction copurified [1] [%]	fraction copurified [2] [%]	fraction copurified [3] [%]
Altered inheritance of mitochondria 32 (Aim32) (from UniProt Q04689 1-311) (natural protein)	10	5	–
Sod2 (enzyme, UniProt P00447 27-233, looked up, Sod2, matrix antioxidant (superoxide dismutase), S. cerevisiae; source: endogenous, S. cerevisiae mitochondrial lysate) KVTLPDLKWDFGALEPYISGQINELHYTKHHQTYVNGFNTAVDQFQELSDLLAKEPSPANARKMIAIQQNIKFHGGGFTNHCLFWENLAPESQGGGEPPTGALAKAIDEQFGSLDELIKLTNTKLAGVQGSGWAFIVKNLSNGGKLDVVQTYNQDTVTGPLVPLVAIDAWEHAYYLQYQNKKADYFKAIWNVVNWKEASRRFDAGKI	–	–	~10
Tim17 (natural protein, UniProt P39515 1-158, looked up, Tim17, component of the TIM23 translocon, S. cerevisiae; source: endogenous, S. cerevisiae mitochondrial lysate) MSADHSRDPCPIVILNDFGGAFAMGAIGGVVWHGIKGFRNSPLGERGSGAMSAIKARAPVLGGNFGVWGGLFSTFDCAVKAVRKREDPWNAIIAGFFTGGALAVRGGWRHTRNSSITCACLLGVIEGVGLMFQRYAAWQAKPMAPPLPEAPSSQPLQA	–	–	~10
Tim22 (natural protein, UniProt Q12328 1-207, looked up, Tim22, component of the TIM22 translocon, S. cerevisiae; source: endogenous, S. cerevisiae mitochondrial lysate) MVYTGFGLEQISPAQKKPYNELTPEEQGERGAEMIMNFMTSCPGKSVVSGVTGFALGGVLGLFMASMAYDTPLHTPTPANTAATATAGNIGVGGISRTVQQISDLPFRQQMKLQFTDMGKKSYSSAKNFGYIGMIYAGVECVIESLRAKNDIYNGVTAGFFTGAGLAYKAGPQAALMGGAGFAAFSAAIDLYMKSEDGRPPQNDFKE	–	–	~10
Tim23 (natural protein, UniProt P32897 1-222, looked up, Tim23, component of the TIM23 translocon, S. cerevisiae; source: endogenous, S. cerevisiae mitochondrial lysate) MSWLFGDKTPTDDANAAVGGQDTTKPKELSLKQSLGFEPNINNIISGPGGMHVDTARLHPLAGLDKGVEYLDLEEEQLSSLEGSQGLIPSRGWTDDLCYGTGAVYLLGLGIGGFSGMMQGLQNIPPNSPGKLQLNTVLNHITKRGPFLGNNAGILALSYNIINSTIDALRGKHDTAGSIGAGALTGALFKSSKGLKPMGYSSAMVAAACAVWCSVKKRLLEK	–	–	~10
Tim50 (natural protein, UniProt Q02776 44-476, looked up, Tim50, component of the TIM23 translocon, S. cerevisiae; source: endogenous, S. cerevisiae mitochondrial lysate) QKETKDDKPKSILTDDMLFKAGVDVDEKGQGKNEETSGEGGEDKNEPSSKSEKSRRKRQTSTDIKREKYANWFYIFSLSALTGTAIYMARDWEPQESEELKKDIDNGYTLSLMYKRFKARFNSMFTYFQEPPFPDLLPPPPPPPYQRPLTLVITLEDFLVHSEWSQKHGWRTAKRPGADYFLGYLSQYYEIVLFSSNYMMYSDKIAEKLDPIHAFVSYNLFKEHCVYKDGVHIKDLSKLNRDLSKVIIIDTDPNSYKLQPENAIPMEPWNGEADDKLVRLIPFLEYLATQQTKDVRPILNSFEDKKNLAEEFDHRVKKLKDKFYGDHKSGGNWAMTALGLGNSLGGSTKFPLDLIHEEGQKNYLMFMKMIEEEKEKIRIQQEQMGGQTFTLKDYVEGNLPSPEEQMKIQLEKQKEVDALFEEEKKKKKIAESK	–	–	~10
